Source: patent WO2011147762A2

What was measured:
[1] = target: ED-B fibronectin antigen protein (recombinant), bound to CNBr activated sepharose 4B (UniProt P02751); test: ED-B sepharose column, % of total radioactivity bound; Study B3; human serum albumin 10 mg/mL; day 1
[2] = target: ED-B fibronectin antigen protein (recombinant), bound to CNBr activated sepharose 4B (UniProt P02751); test: ED-B sepharose column, % of total radioactivity bound; Study A; methionine 25 mg/mL; day 3
[3] = target: ED-B fibronectin antigen protein (recombinant), bound to CNBr activated sepharose 4B (UniProt P02751); test: ED-B sepharose column, % of total radioactivity bound; Study B3; ascorbic acid 25 mg/mL; day 2
[4] = target: ED-B fibronectin antigen protein (recombinant), bound to CNBr activated sepharose 4B (UniProt P02751); test: ED-B sepharose column, % of total radioactivity bound; Study B3; ascorbic acid 25 mg/mL; day 0
[5] = target: ED-B fibronectin antigen protein (recombinant), bound to CNBr activated sepharose 4B (UniProt P02751); test: ED-B sepharose column, % of total radioactivity bound; Study B3; ascorbic acid 25 mg/mL; day 1
[6] = target: ED-B fibronectin antigen protein (recombinant), bound to CNBr activated sepharose 4B (UniProt P02751); test: ED-B sepharose column, % of total radioactivity bound; Study A; inositol 10 mg/mL; day 0
[7] = target: ED-B fibronectin antigen protein (recombinant), bound to CNBr activated sepharose 4B (UniProt P02751); test: ED-B sepharose column, % of total radioactivity bound; Study A; methionine 25 mg/mL; day 7
[8] = target: ED-B fibronectin antigen protein (recombinant), bound to CNBr activated sepharose 4B (UniProt P02751); test: ED-B sepharose column, % of total radioactivity bound; Study A; maltose 25 mg/mL; day 0
[9] = target: ED-B fibronectin antigen protein (recombinant), bound to CNBr activated sepharose 4B (UniProt P02751); test: ED-B sepharose column, % of total radioactivity bound; Study A; sodium thiosulfate 10 mg/mL; day 7
[10] = target: ED-B fibronectin antigen protein (recombinant), bound to CNBr activated sepharose 4B (UniProt P02751); test: ED-B sepharose column, % of total radioactivity bound; Study A; maltose 10 mg/mL; day 7
[11] = target: ED-B fibronectin antigen protein (recombinant), bound to CNBr activated sepharose 4B (UniProt P02751); test: ED-B sepharose column, % of total radioactivity bound; Study A; sodium thiosulfate 50 mg/mL; day 0
[12] = target: ED-B fibronectin antigen protein (recombinant), bound to CNBr activated sepharose 4B (UniProt P02751); test: ED-B sepharose column, % of total radioactivity bound; Study A; maltose 25 mg/mL; day 1
[13] = target: ED-B fibronectin antigen protein (recombinant), bound to CNBr activated sepharose 4B (UniProt P02751); test: ED-B sepharose column, % of total radioactivity bound; Study A; maltose 5 mg/mL; day 1
[14] = target: ED-B fibronectin antigen protein (recombinant), bound to CNBr activated sepharose 4B (UniProt P02751); test: ED-B sepharose column, % of total radioactivity bound; Study A; methionine 5 mg/mL; day 3
[15] = target: ED-B fibronectin antigen protein (recombinant), bound to CNBr activated sepharose 4B (UniProt P02751); test: ED-B sepharose column, % of total radioactivity bound; Study A; sodium thiosulfate 25 mg/mL; day 3
[16] = target: ED-B fibronectin antigen protein (recombinant), bound to CNBr activated sepharose 4B (UniProt P02751); test: ED-B sepharose column, % of total radioactivity bound; Study A; inositol 5 mg/mL; day 7
[17] = target: ED-B fibronectin antigen protein (recombinant), bound to CNBr activated sepharose 4B (UniProt P02751); test: ED-B sepharose column, % of total radioactivity bound; Study A; inositol 25 mg/mL; day 7
[18] = target: ED-B fibronectin antigen protein (recombinant), bound to CNBr activated sepharose 4B (UniProt P02751); test: ED-B sepharose column, % of total radioactivity bound; Study B3; thioglycerol 10 mg/mL; day 1
[19] = target: ED-B fibronectin antigen protein (recombinant), bound to CNBr activated sepharose 4B (UniProt P02751); test: ED-B sepharose column, % of total radioactivity bound; Study A; no-excipient control (saline); day 1
[20] = target: ED-B fibronectin antigen protein (recombinant), bound to CNBr activated sepharose 4B (UniProt P02751); test: ED-B sepharose column, % of total radioactivity bound; Study A; sodium thiosulfate 10 mg/mL; day 3
[21] = target: ED-B fibronectin antigen protein (recombinant), bound to CNBr activated sepharose 4B (UniProt P02751); test: ED-B sepharose column, % of total radioactivity bound; Study A; inositol 5 mg/mL; day 5
[22] = target: ED-B fibronectin antigen protein (recombinant), bound to CNBr activated sepharose 4B (UniProt P02751); test: ED-B sepharose column, % of total radioactivity bound; Study A; trolox 5 mg/mL; day 0
[23] = target: ED-B fibronectin antigen protein (recombinant), bound to CNBr activated sepharose 4B (UniProt P02751); test: ED-B sepharose column, % of total radioactivity bound; Study A; inositol 25 mg/mL; day 0
[24] = target: ED-B fibronectin antigen protein (recombinant), bound to CNBr activated sepharose 4B (UniProt P02751); test: ED-B sepharose column, % of total radioactivity bound; Study A; inositol 5 mg/mL; day 3
[25] = target: ED-B fibronectin antigen protein (recombinant), bound to CNBr activated sepharose 4B (UniProt P02751); test: ED-B sepharose column, % of total radioactivity bound; Study A; sodium thiosulfate 10 mg/mL; day 1
[26] = target: ED-B fibronectin antigen protein (recombinant), bound to CNBr activated sepharose 4B (UniProt P02751); test: ED-B sepharose column, % of total radioactivity bound; Study B3; inositol 10 mg/mL; day 0
[27] = target: ED-B fibronectin antigen protein (recombinant), bound to CNBr activated sepharose 4B (UniProt P02751); test: ED-B sepharose column, % of total radioactivity bound; Study B3; human serum albumin 10 mg/mL; day 0
[28] = target: ED-B fibronectin antigen protein (recombinant), bound to CNBr activated sepharose 4B (UniProt P02751); test: ED-B sepharose column, % of total radioactivity bound; Study B3; thioglycerol 10 mg/mL; day 3

Sequence of 131I L19-SIP (radioiodinated L19 SIP homodimer) (chain): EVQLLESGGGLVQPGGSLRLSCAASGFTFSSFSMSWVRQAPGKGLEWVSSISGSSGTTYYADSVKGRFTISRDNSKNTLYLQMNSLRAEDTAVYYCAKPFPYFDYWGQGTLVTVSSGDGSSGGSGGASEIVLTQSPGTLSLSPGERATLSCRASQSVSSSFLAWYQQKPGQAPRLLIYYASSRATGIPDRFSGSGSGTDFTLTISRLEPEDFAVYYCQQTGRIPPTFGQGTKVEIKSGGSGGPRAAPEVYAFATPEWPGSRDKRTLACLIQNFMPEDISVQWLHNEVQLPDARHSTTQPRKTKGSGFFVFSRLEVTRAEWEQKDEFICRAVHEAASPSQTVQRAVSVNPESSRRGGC
Sequence of 131I L19-SIP (radioiodinated L19 SIP homodimer) (chain): as above
Sequence of UniProt P02751 (P02751 1266-1356 limits assumed): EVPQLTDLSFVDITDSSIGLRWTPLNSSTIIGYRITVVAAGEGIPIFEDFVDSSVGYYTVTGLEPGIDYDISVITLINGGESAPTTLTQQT

- Immunoreactivity (IR) (%) [1]: 78%
- Immunoreactivity (%) [2]: 79.6%
- Immunoreactivity (IR) (%) [3]: 75%
- Immunoreactivity (IR) (%) [4]: 74.1%
- Immunoreactivity (IR) (%) [5]: 78%
- Immunoreactivity (%) [6]: 93.4%
- Immunoreactivity (%) [7]: 58.9%
- Immunoreactivity (%) [8]: 93.6%
- Immunoreactivity (%) [9]: 78%
- Immunoreactivity (%) [10]: 53.7%
- Immunoreactivity (%) [11]: 95.8%
- Immunoreactivity (%) [12]: 86.4%
- Immunoreactivity (%) [13]: 84.4%
- Immunoreactivity (%) [14]: 72.9%
- Immunoreactivity (%) [15]: 92.3%
- Immunoreactivity (%) [16]: 56.2%
- Immunoreactivity (%) [17]: 62.8%
- Immunoreactivity (IR) (%) [18]: 60.7%
- Immunoreactivity (%) [19]: 81.6%
- Immunoreactivity (%) [20]: 88.5%
- Immunoreactivity (%) [21]: 56.2%
- Immunoreactivity (%) [22]: 94.6%
- Immunoreactivity (%) [23]: 94.1%
- Immunoreactivity (%) [24]: 64.6%
- Immunoreactivity (%) [25]: 94.7%
- Immunoreactivity (IR) (%) [26]: 59.5%
- Immunoreactivity (IR) (%) [27]: 76.3%
- Immunoreactivity (IR) (%) [28]: 59.5%
Substance: 131I L19-SIP (radioiodinated L19 SIP homodimer)
